Test results from article PMC4294675 (Molecular Biology of the Cell, 2015).

B1: Cdc12(FH1) (domain or fragment)
chain: GSTNSKERIIEYLLDKLDLRKKEIAAESTLWSNDGIDDKLRDLREQMSRQSSQPSTVSTILQIPDKKFHRPFPRHLHRYVGRSASESLTSEKDESIKSMKGIDDFANLEIPGKGIESNVVIKDISNQTHEINSVENKAETVSNNSKITNFDIPNDATSLPTIITHPTPPPPPPLPVKTSLNTFSHPDSVNIVANDTSVAGVMPAFPPPPPPPPPLVSAAGGKFVSPAVSNNIS
B2: budding yeast profilin ScPFY (wild type) (natural protein)
chain: MSWQAYTDNLIGTGKVDKAVIYSRAGDAVWATSGGLSLQPNEIGEIVQGFDNPAGLQSNGLHIQGQKFMLLRADDRSIYGRHDAEGVVCVRTKQTVIIAHYPPTVQAGEATKIVEQLADYLIGVQY

Legend:
Experiment in all cases: other fluorescence titration
[1] = molecular target: ScPFY(9-Mut) (Saccharomyces cerevisiae) (UniProt P07274)
[2] = molecular target: budding yeast profilin ScPFY (wild type) (Saccharomyces cerevisiae) (UniProt P07274)
[3] = molecular target: fission yeast profilin SpPRF (S. pombe) (UniProt P39825)
Sequence of fission yeast profilin SpPRF (S. pombe) (P39825 whole entry): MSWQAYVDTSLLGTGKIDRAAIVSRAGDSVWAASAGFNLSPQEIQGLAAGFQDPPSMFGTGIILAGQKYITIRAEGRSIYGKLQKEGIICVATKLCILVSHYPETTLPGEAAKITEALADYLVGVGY

[4] = molecular target: T1, Cdc12(FH1) (fission yeast, UniProt Q10059 740-972)
T1 sequence: B1 chain

Molecule | Kd [1] [µM] | Kd [2] [µM] | Kd [3] [µM] | Kd [4] [µM]
poly-L-proline (peptide) | 195 | 224 | 59 | –
B1 | 22.7 | – | – | –
B2 | – | – | – | 24.7
